For assay [1], the target named is CD3 on T cells of human PBMC (human). The assay is described as follows: cell-based or functional assay.
Assay [2] deals with EGFR (epidermal growth factor receptor) on human glioma U87 cells (human) (UniProt P00533). The assay is described as follows: cell-based or functional assay.

Experimental findings from patent CN115029318A are described below.

Where only a bound is given, the exact number is not on record here.

B1: EGFR-CD3-EGFR MsAb (bispecific antibody, part only; not given: linkers and His tag, not shown: small tags and cut ends)
chain, part: ESGGGLTQPGGSLRLSCAASGMSTGMWHRPTPGRERELIALKAPWPGTAPSSWRFTISRDNASNTVYLQMANLNTEDTAVYFCHAGGLLEWELLVVAASWGQGTVSSQVKLEESGSELVQPGGPLRLSCAASANIFSRTEDDWIWYRQAPGKQRAFVAWITGLSTKIGRFTISVDKSKGTIYLQMNALKPEDTAVYYANAAEHASKVVEVSTSWGQGTVVTVSSESGGGLTQPGGSLRLSCAASGMSTGMWHRPTPGRERELIALKAPWPGTAPSSWRFTISRDNASNTVYLQMANLNTEDTAVYFCHAGGLLEWELLVVAASWGQGTVSS
In the case of B1, the 细胞杀伤率 (killing of GFP-labelled U87 cells by human PBMC, effector:target 5:1, 50 ng/mL antibody, 24 h, 7-AAD, high-content imaging) in assay [1] and in assay [2] was over 80% in each case.
